Substitutions are numbered along the chain they refer to.
B1: PA2LR3-P1G6 (chimeric) (antibody, V domains shown)
VH: EVQLQQSGAELVRPGSSVKISCKASGYAFSYYWMNWVKQRPGQGLEWIGQIYPGDGDTNYNGKFKGKATLTVDKSSSTAYMQLSSLTSEDSAVYFCARSHGNYFAYWGQGTLVTVSA
VL: DIVLSQSPAIMSASLGERVTMTCTASSSVSSSYLHWYQQKPGSSPKLWIYSTSNLASGVPARFSGSGSGTSYSLTISRMEAEDAATYYCQQWSSYPLTFGAGTKLELKR
B2: PA2LR3-P2B8 (chimeric) (antibody, V domains shown)
VH: B1 VH with V72A
VL: B1 VL with L4M, S5T, V29I, R78S, Q90H, W92Y, S93H, S94R, Y95S, T98A
B3: PA2LR3-P4G10 (chimeric) (antibody, V domains shown)
VH: B1 VH with S7F, V72A
VL: B1 VL with S5T, R78S, Y95N
B4: PA2LR3-P2D3 (chimeric) (antibody, human IgG1, kappa, V domains shown)
VH: B1 VH with V72A, N102S
VL: DIELAQSPASLAVSLGQRATISCRASESVDSYGNSFMHWYQQKPGQPPKLLIYLASNLESGVPARFSGSGSRADFTLTIDPVEADDAATYYCLQYASSPPTFGAGTKLEIKR
B5: PA2LR3-P1H4 (chimeric) (antibody, V domains shown)
VH: B1 VH with A28V, S30G, Y31N, V72A, A105P
VL: B1 VL with D1Q, S5T, R78S
B6: PA2LR3-P2E5 (chimeric) (antibody, V domains shown)
VH: B1 VH with S30R, Y31D, D57A, N61I, V72A, A105P, Q109H
VL: B1 VL with D1Q, S5T, R78S
B7: PA2LR3-P3B8 (chimeric) (antibody, V domains shown)
VH: B1 VH with Y27F, Y31N, Y60F, K67R, T69I, V72A, K74I, S77N, A105P
VL: B1 VL with L4M, S5T, S51G, A61V, R78S
B8: PA2LR3-P4C6 (chimeric) (antibody, V domains shown)
VH: B1 VH with V72A, A105P
VL: B1 VL with L4I, S5T, M11V, R78S, L107I
B9: PA2LR3-P3B10 (chimeric) (antibody, V domains shown)
VH: B1 VH with V72A, A105P
VL: B1 VL with L4I, S5T, M11V, R78S, L107I
B10: PA2LR3-P4B1 (chimeric) (antibody, human IgG1, kappa, V domains shown)
VH: B1 VH with Y27F, Y31N, Y60F, K67R, T69I, V72A, K74I, S77N, A105P
VL: B1 VL with D1Q, S5T, R78S, Q90H, W92Y, S93H, S94R, Y95S
B11: PA2R3-P1F1 (chimeric) (antibody, V domains shown)
VH: EVQLQQSGAELMKPGASVKISCKATGYTFSSYWIEWVKQRPGHGLEWIGEILPGSGSTNYNEKFKGKATFTADTSSNTAYMQLSSLTSEDSAVYYCARGAWLLSYWYFDVWGAGTSVTVSS
VL: DIQMMQSTSSLSASLGDRVTISCSASQGISNYLNWYQQKPDGTVKLLIYYTSSLHSGVPSRFSGSGSGTQFSLKINSLQPEDFGSYYCQHHYGTPYTFGGGTKLELKR

Molecular target: A138 iCAPS (purified human CB1 with ICL3 native sequence replaced with protein 1 sequence, in lipid bilayer) (human) (UniProt P21554)
Sequence (P21554 whole entry): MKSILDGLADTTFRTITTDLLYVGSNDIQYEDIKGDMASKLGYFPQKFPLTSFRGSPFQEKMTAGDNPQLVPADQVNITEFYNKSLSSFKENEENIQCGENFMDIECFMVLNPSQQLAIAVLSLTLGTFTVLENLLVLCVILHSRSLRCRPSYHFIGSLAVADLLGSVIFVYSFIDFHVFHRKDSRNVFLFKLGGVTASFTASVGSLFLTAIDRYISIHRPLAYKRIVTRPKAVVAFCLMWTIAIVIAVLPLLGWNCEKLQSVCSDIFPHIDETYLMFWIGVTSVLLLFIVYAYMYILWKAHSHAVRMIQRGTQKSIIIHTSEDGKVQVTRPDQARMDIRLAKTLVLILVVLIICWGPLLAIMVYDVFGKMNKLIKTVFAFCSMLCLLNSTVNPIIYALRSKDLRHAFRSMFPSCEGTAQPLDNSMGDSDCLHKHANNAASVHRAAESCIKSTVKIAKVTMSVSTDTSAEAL
Test: ELISA, purified IgG on CB1 iCAPS

| Binder | EC50 [nM] |
| --- | --- |
| B1 | 81 |
| B2 | 6.7 |
| B3 | 1.19 |
| B4 | 4.9 |
| B5 | 21 |
| B6 | 10 |
| B7 | 71 |
| B8 | 0.4 |
| B9 | 1.4 |
| B10 | 1.28 |
| B11 | 1.3 |

Molecular target: A139 iCAPS (purified human CB1 with ICL3 native sequence replaced with BRIL, in lipid bilayer) (human) (UniProt P21554)
Sequence (P21554 whole entry): as above
Test: ELISA, purified IgG on CB1 iCAPS

| Binder | EC50 [nM] |
| --- | --- |
| B1 | 35 |
| B2 | 1.8 |
| B3 | 1.35 |
| B4 | 2.6 |
| B5 | 33.5 |
| B6 | 3.2 |
| B8 | 0.4 |
| B9 | 0.78 |
| B10 | 1.41 |
| B11 | 1.1 |
